From US20050026839A1 (GENERAL HOSPITAL, published 2005)
Square brackets hold non-standard residues; d marks the D form. Ends that are not written are not given here. hArg = N=C(N)NCCCC[C@H](N)C(=O)O; Nle = CCCC[C@H](N)C(=O)O; Aib = CC(C)(N)C(=O)O

Columns and labels:
[1] = target: T1, wild-type human PTH/PTHrP receptor (hP1R-WT) (human, UniProt Q03431 27-593); experiment: cell-based or functional assay
T1 sequence (looked up): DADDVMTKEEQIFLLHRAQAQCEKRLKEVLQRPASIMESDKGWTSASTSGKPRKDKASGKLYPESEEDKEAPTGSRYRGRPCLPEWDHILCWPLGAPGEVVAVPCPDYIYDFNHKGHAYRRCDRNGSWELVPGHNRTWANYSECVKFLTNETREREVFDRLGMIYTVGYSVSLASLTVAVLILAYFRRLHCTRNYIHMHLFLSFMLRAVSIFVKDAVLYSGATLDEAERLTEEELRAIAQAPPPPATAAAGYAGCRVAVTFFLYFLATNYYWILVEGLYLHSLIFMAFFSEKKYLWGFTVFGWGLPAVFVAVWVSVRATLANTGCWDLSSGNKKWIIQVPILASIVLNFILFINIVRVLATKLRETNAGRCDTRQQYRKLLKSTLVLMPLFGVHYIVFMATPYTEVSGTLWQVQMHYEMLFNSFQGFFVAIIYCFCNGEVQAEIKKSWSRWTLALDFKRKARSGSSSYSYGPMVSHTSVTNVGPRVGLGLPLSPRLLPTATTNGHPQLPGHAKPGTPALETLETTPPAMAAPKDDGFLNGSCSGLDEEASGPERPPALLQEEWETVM

[2] = target: T2, truncated human P1R deleted for residues (24-181) (hP1R-delNt) (human, UniProt Q03431 182-593); experiment: cell-based or functional assay
T2 sequence (looked up): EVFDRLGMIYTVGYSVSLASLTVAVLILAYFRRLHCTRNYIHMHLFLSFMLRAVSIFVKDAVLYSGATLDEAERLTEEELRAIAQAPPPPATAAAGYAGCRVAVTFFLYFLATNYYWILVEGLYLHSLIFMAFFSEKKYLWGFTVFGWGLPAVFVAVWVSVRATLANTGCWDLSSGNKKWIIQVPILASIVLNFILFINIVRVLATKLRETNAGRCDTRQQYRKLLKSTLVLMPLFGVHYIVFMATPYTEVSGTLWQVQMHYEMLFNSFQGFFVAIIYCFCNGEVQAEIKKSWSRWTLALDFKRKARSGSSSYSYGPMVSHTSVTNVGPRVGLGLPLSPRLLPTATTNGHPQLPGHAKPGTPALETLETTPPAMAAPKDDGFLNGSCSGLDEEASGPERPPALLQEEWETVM

[3] = target: T2, truncated human P1R deleted for …; experiment: competition binding, COS-7 cells expressing P1R-delNt
Protocol: These cells, as well as COS-7 cells and SaOS-2-B10 cells, were cultured at […] in T-75 flasks ([…]) in Dulbecco's modified Eagle's medium (DMEM) supplemented with fetal bovine serum (10%), penicillin G (20 units/ml), streptomycin sulfate (20 μg/ml) and amphotericin B (0.05 μg/ml) in a humidified atmosphere containing 5% CO₂. Stock solutions of EGTA/trypsin and antibiotics were from GIBCO; fetal bovine serum was from Hyclone Laboratories (Logan, Utah). […] All cells, in 24-well plates, were treated with fresh media and shifted to 33° C. for 12 to 24 h prior to assay.
Competition Binding. Binding reactions were performed with HKRK-B28 cells or in COS-7 cells in 24-well plates. […] The cells were subsequently lysed with 0.5 mL […] and counted for radioactivity. For each tracer and in each experiment, the non-specific binding was determined as the radioactivity that bound in the presence of the same unlabeled peptide at a concentration of 1 μM, and was ˜1% of total radioactivity added for each tracer. The maximum specific binding (B₀) was the total radioactivity bound in the absence of competing ligand, corrected for nonspecific binding, and for each tracer, ranged from 8% to 20% of the total radioactivity added. […]

[4] = target: T1, wild-type human PTH/PTHrP receptor …; experiment: competition binding, 125I-[Aib1,3,M]PTH(1-21) tracer, COS-7 cells expressing hP1R-WT
Protocol: (§1) Competition Binding. Binding reactions were performed with HKRK-B28 cells or in COS-7 cells in 24-well plates. The cells were rinsed with 0.5 mL of binding buffer, and then treated successively with 100 μL binding buffer, 100 μL of binding buffer containing various amounts of unlabeled competitor ligand, and 100 μL of binding buffer containing ca. 100,000 cpm of ¹²⁵I-[M]PTH(1-21) or ¹²⁵I-[Aib^{1,3},M]PTH(1-21)} (ca. 26 fmol; final volume=300 μL). Incubations were 4 to 6 h at 4° C., at which time near equilibrium conditions were attained. Cells were then placed on ice, the binding medium was removed, and the monolayer was rinsed three times with 0.5 mL of cold binding buffer. The cells were subsequently lysed with 0.5 mL […] NaOH and counted for radioactivity. For each tracer and in each experiment, the non-specific binding was determined as the radioactivity that bound in the presence of the same unlabeled peptide at a concentration of 1 μM, and was ˜1% of total radioactivity added for each tracer. The maximum specific binding (B₀) was the total radioactivity bound in the absence of competing ligand, corrected for nonspecific binding, and for each tracer, ranged from 8% to 20% of the total radioactivity added. Nonlinear regression was used to calculate binding IC₅₀ values (see below). Scatchard transformations of homologous competition binding data derived from studies with 26 fmol of ¹²⁵I-[Aib^{1,3},M]PTH(1-21) were employed for estimations of apparent equilibrium dissociation constant (kDapps) and total number of ligand binding sites (Bₘₐₓ), assuming a single class of binding sites and equal affinities of the iodinated and non iodinated ligand.

[5] = target: T2, truncated human P1R deleted for …; experiment: competition binding, 125I-[Aib1,3,M]PTH(1-21) tracer, COS-7 cells expressing hP1R-delNt
Protocol: Stock solutions of EGTA/trypsin and antibiotics were from GIBCO; fetal bovine serum was from Hyclone Laboratories (Logan, Utah). […] All cells, in 24-well plates, were treated with fresh media and shifted to 33° C. for 12 to 24 h prior to assay.
as §1

B1: [Aib^1,3,M]PTH(1-21) (peptide)
peptide: [Aib]V[Aib]EIQL[Nle]HQ[hArg]AKWLASVRRY-NH2
modifications: N-terminus assumed
SMILES: CCCC[C@H](NC(=O)[C@H](CC(C)C)NC(=O)[C@H](CCC(N)=O)NC(=O)[C@@H](NC(=O)[C@H](CCC(=O)O)NC(=O)C(C)(C)NC(=O)[C@@H](NC(=O)C(C)(C)N)C(C)C)[C@@H](C)CC)C(=O)N[C@@H](Cc1c[nH]cn1)C(=O)N[C@@H](CCC(N)=O)C(=O)N[C@@H](CCCCNC(=N)N)C(=O)N[C@@H](C)C(=O)N[C@@H](CCCCN)C(=O)N[C@@H](Cc1c[nH]c2ccccc12)C(=O)N[C@@H](CC(C)C)C(=O)N[C@@H](C)C(=O)N[C@@H](CO)C(=O)N[C@H](C(=O)N[C@@H](CCCNC(=N)N)C(=O)N[C@@H](CCCNC(=N)N)C(=O)N[C@@H](Cc1ccc(O)cc1)C(N)=O)C(C)C
notes: unlabeled peptide; also called 674 [Aib^1,3, M]PTH (1-21); 674 [Aib^1,3M]PTH(1-21)
[1]
  cAMP EC50: 0.8 nM
  cAMP EMax(obs.): 300 pmole/well
[2]
  cAMP EC50: 0.38 nM
  cAMP EMax(obs.): 240 pmole/well
[3]
  fold difference in affinity against [Aib^1,3,M]PTH(1-14): 50 fold
[4]
  IC50: 28 nM
[5]
  IC50: 27 nM

B2: [Aib^1,3,M]PTH(1-14) (peptide)
peptide: [Aib]V[Aib]EIQLMHQ[hArg]AKW-NH2
modifications: N-terminus assumed
SMILES: CC[C@H](C)[C@H](NC(=O)[C@H](CCC(=O)O)NC(=O)C(C)(C)NC(=O)[C@@H](NC(=O)C(C)(C)N)C(C)C)C(=O)N[C@@H](CCC(N)=O)C(=O)N[C@@H](CC(C)C)C(=O)N[C@@H](CCSC)C(=O)N[C@@H](Cc1c[nH]cn1)C(=O)N[C@@H](CCC(N)=O)C(=O)N[C@@H](CCCCNC(=N)N)C(=O)N[C@@H](C)C(=O)N[C@@H](CCCCN)C(=O)N[C@@H](Cc1c[nH]c2ccccc12)C(N)=O
notes: also called 671 [Aib^1,3, M]PTH (1-14); 671 [Aib^1,3M]PTH(1-14)
[1]
  PLC EC50: 71 nM
  PLC EMAX(obs.): 4.3 foldxbasal
  cAMP EC50: 1.2 nM
  cAMP EMax(obs.): 240 pmole/well
[2]
  PLC EC50: 130 nM
  PLC EMAX(obs.): 3.1 foldxbasal
  cAMP EC50: 0.73 nM
  cAMP EMax(obs.): 250 pmole/well
[3]
  fold stronger binding affinity than [M]PTH(1-14): ~10 fold
[4]
  IC50: 2250 nM
[5]
  IC50: 1600 nM
